# Laboratory results taken from patent US20210206875A1, “ERBB-2 TARGETING AGENT AND A BISPECIFIC ANTIBODY WITH ANTIGEN-BINDING SITES THAT BIND AN EPITOPE ON AN EXTRACELLULAR PART OF ERB-2 AND ERBB-3, FOR TREATMENT OF AN INDIVIDUAL WITH AN ERBB-2, ERBB-2/ERBB-3 POSITIVE TUMOUR” (Merus N.V., priority 2017, published 2021).
# Target: Erbb-3-Fc (RND systems) (UniProt P21860)
# Experiment: SPR (Biacore T100), monovalent affinity; column head 'KD on Her3 (nM)'; PB4188 on CM5 chip, Her3-Fc in solution
substance,measurement,value
PB4188 (MF3958 x MF3178) (bispecific antibody),Kd,3.9 nM
